Test results taken from patent US20120077731A1 (Ablynx, published 2012).

B4: Human soluble IL-6R (receptor, UniProt P08887 20-358, looked up)
chain: LAPRRCPAQEVARGVLTSLPGDSVTLTCPGVEPEDNATVHWVLRKPAAGSHPSRWAGMGRRLLLRSVQLHDSGNYSCYRAGRPAGTVHLLVDVPPEEPQLSCFRKSPLSNVVCEWGPRSTPSLTTKAVLLVRKFQNSPAEDFQEPCQYSQESQKFSCQLAVPEGDSSFYIVSMCVASSVGSKFSKTQTFQGCGILQPDPPANITVTAVARNPRWLSVTWQDPHSWNSSFYRLRFELRYRAERSKTFTTWMVKDLQHHCVIHDAWSGLRHVVQLRAQEEFGQGEWSEWSPEAMGTPWTESRSPPAENEVSTPMQALTTNKDDDNILFRDSANATSLPVQD
notes: Soluble recombinant form; biotinylated in some assays; also called hIL-6R; human IL-6R

Columns and labels:
[1] = target: T1, Human membrane IL-6R on cells (human, UniProt P08887 20-468); experiment: cell-based or functional assay
T1 sequence (looked up): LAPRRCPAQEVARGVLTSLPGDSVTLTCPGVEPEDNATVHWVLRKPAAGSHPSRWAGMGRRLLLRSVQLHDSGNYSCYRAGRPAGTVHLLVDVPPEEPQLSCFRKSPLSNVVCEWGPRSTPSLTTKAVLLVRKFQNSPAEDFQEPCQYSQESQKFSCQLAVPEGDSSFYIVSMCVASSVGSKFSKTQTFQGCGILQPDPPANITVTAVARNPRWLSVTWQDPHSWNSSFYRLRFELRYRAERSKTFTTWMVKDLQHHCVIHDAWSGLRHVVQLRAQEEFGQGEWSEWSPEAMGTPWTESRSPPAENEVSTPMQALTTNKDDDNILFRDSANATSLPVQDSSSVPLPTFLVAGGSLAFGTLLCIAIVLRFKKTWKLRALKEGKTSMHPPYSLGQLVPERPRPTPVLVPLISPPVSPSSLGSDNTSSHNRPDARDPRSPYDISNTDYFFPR

[2] = target: T1, Human membrane IL-6R on cells; experiment: cell-based or functional assay; remark: listed apart in the source
[3] = target: T1, Human membrane IL-6R on cells; experiment: cell-based or functional assay; remark: listed apart in the source
Human soluble IL-6R [4] = target: B4; experiment: Biacore off-rate, periplasmic extract
Human soluble IL-6R [5] = target: B4; experiment: SPR Biacore 3000, IL-6R amine-coupled to CM5
Method: (§1) Nanobodies were injected at 5 different concentrations between 1 and 50 nM. Flow rate was 45 μl/min in all experiments. Association and dissociation phase were 3 and 10 min, respectively. The chip was regenerated using Glycine/HCl pH 1.5.

Human soluble IL-6R [6] = target: B4; experiment: Alphascreen, inhibition of bio-IL-6 binding to IL-6R
Method: (§2) Finally streptavidin donor beads were added and after 1 hour incubator the plate was read on the Envision microplate reader.

Human soluble IL-6R [7] = target: B4; experiment: summary table C-13 of Nanobody characteristics, Kd on IL-6R
Method: as §1

Human soluble IL-6R [8] = target: B4; experiment: inhibition of the IL-6/IL-6R interaction, summary table C-13
Method: as §2

Human soluble IL-6R [9] = target: B4; experiment: competition for IL-6R, competitor reference Fab, summary table C-13
Human soluble IL-6R [10] = target: B4; experiment: Alphascreen, 100 nM Nanobody, 0.4 nM bio-IL-6R; competitor: reference Fab
Human soluble IL-6R [11] = target: B4; experiment: SPR Biacore 3000, IL-6R amine-coupled to CM5; second koff of IL6R02; the one that fits kon and Kd
Method: as §1

Mouse IL-6R [12] = target: T2, Mouse IL-6R (mouse, UniProt P22272 20-364, limits assumed); experiment: ELISA: plate coated with 1 µg/ml mouse IL-6R, 500 nM Nanobody, anti-myc + anti-mouse-HRP
T2 construct: also called mouse sIL-6R
T2 sequence (looked up): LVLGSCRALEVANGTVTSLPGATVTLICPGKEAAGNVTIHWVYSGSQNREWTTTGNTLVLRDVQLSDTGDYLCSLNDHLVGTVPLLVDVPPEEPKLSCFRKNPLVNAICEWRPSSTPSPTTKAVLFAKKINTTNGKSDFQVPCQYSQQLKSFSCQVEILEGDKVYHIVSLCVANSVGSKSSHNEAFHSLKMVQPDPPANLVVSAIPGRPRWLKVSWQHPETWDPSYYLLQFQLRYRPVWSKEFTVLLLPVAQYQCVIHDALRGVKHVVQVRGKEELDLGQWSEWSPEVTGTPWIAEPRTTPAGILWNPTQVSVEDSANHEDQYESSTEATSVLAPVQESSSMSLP
Method: Detection was performed with anti-myc and anti-mouse-HRP as first and second antibody respectively.

[13] = target: T1, Human membrane IL-6R on cells; experiment: cell-based or functional assay; remark: listed apart in the source
Human soluble IL-6R [14] = target: B4; experiment: Alphascreen, inhibition of bio-IL-6 binding to IL-6R; remark: listed apart in the source
Method: as §2

Human plasma sIL-6R [15] = target: T3, Human plasma sIL-6R (human, UniProt P08887 20-355, limits assumed); experiment: plasma potency ELISA, human plasma, IL-6 at EC50 (50 ng/mL)
T3 construct: also called plasma-derived human IL-6R
T3 sequence (looked up): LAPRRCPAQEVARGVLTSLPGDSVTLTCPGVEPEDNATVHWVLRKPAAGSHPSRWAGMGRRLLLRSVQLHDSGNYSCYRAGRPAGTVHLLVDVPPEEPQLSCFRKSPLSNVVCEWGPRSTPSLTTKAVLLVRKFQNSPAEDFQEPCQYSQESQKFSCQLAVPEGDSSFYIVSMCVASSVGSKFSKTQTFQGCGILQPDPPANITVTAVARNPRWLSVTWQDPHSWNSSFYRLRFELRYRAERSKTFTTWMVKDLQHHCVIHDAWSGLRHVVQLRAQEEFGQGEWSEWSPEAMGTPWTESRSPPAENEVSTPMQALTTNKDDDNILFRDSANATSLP

Human plasma sIL-6R [16] = target: T3, Human plasma sIL-6R; experiment: plasma potency ELISA, human plasma, IL-6 at EC95 (885 ng/mL)
Mouse IL-6R [17] = target: T2, Mouse IL-6R; experiment: ELISA: plate coated with 1 µg/ml mouse IL-6R; concentration and detection of this control not told
Cyno plasma sIL-6R = target: T4, Cyno plasma sIL-6R (cynomolgus monkey, UniProt A0A2K5WN54 60-396); experiment: plasma potency ELISA, cyno plasma + human IL-6 50 ng/mL; sIL-6R captured on BN-12, bound IL-6 detected; blocked ligand IL-6
T4 construct: also called cynomolgus sIL-6R
T4 sequence: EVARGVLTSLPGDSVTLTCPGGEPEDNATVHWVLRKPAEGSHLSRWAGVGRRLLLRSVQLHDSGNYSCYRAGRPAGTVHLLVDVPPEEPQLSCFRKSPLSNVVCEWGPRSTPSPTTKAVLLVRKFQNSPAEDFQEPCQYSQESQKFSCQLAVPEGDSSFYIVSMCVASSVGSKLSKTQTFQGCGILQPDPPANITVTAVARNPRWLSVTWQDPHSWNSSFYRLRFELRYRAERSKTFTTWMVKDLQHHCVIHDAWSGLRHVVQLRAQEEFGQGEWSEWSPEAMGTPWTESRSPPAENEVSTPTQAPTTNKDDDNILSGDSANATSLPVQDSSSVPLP

Human plasma sIL-6R [18] = target: T3, Human plasma sIL-6R; experiment: plasma potency ELISA, human plasma + human IL-6 50 ng/mL; sIL-6R captured on BN-12, bound IL-6 detected; blocked ligand IL-6
Human soluble IL-6R [19] = target: B4; experiment: SPR Biacore 3000, IL-6R amine-coupled to CM5; paired with the second koff of IL6R06 (r17c3)
Method: as §1

Human soluble IL-6R [20] = target: B4; experiment: SPR Biacore 3000, IL-6R amine-coupled to CM5; first koff listed; a separate determination, not the one behind the Kd
PMP20A11 [21] = target: T5, PMP20A11; experiment: competitive binding ELISA, 0.05 nM IL6R20A11 pre-incubated with sIL-6R, free Nanobody captured on sIL-6R
T5 construct: also called IL6R20A11; IL6R300; not shown: c-myc and (His)6 tags

PMP20A11 [22] = target: T5, PMP20A11; experiment: competition ELISA: IL6R20A11 (0.4 nM) pre-incubated with a series of recombinant sIL-6R; free IL6R20A11 captured on biotinylated human sIL-6R on neutravidin
Human soluble IL-6R [23] = target: B4; experiment: summary table C-13 of Nanobody characteristics, Kd on IL-6R; summary table C-13

B1: IL6R02 (VHH)
VHH: EVQLVESGGGLVQAGGSLRLSCAASGRTFSSYDMGWYRQAPGKEREFVAVISRSGSSTYYADSVKGRFTISRDNAKNTVYLQMNSLKPEDTAIYYCKAEVVAGDYDYWGQGTQVTVSS
notes: also called PMP30C11; not shown: C-terminal c-myc and (His)6 tags
IC50 (nM), XG-1 cell proliferation [1]: 31 nM
IC50 (nM), TF1 cell proliferation [2]: 94.7 nM
IC50 (nM) XG-1 [3]: 31 nM
koff (Human soluble IL-6R [4]): 0.00294 s⁻¹
Kd (Human soluble IL-6R [5]): 5.9 nM
koff (Human soluble IL-6R [5]): 0.00294 s⁻¹
kon (Human soluble IL-6R [5]): 840000 M⁻¹ s⁻¹
IC50 (Human soluble IL-6R [6]): 1.69 nM
Kd (Human soluble IL-6R [7]): 5.9 nM
IC50 (Human soluble IL-6R [8]): 1.69 nM
Ref Fab competition (%) (Human soluble IL-6R [9]): 86%
Residual reference-Fab binding to IL-6R (%) (Human soluble IL-6R [10]): 86%
koff (Human soluble IL-6R [11]): 0.00495 s⁻¹
binding result (Mouse IL-6R [12]): no binding (tested: 500 nM)

B2: Reference Fab (Fab, V domains shown)
VH: QVQLQESGPGLVRPSQTLSLTCTVSGYSITSDHAWSWVRQPPGRGLEWIGYISYSGITTYNPSLKSRVTMLRDTSKNQFSLRLSSVTAADTAVYYCARSLARTTAMDYWGQGSLVTVSS
VL: DIQMTQSPSSLSASVGDRVTITCRASQDISSYLNWYQQKPGKAPKLLIYYTSRLHSGVPSRFSGSGSGTDFTFTISSLQPEDIATYYCQQGNTLPYTFGQGTKVEIKR
notes: Built from RVLa and RVHf of EP 0628639; expressed in E. coli periplasm
IC50 (nM), XG-1 cell proliferation [1]: 6 nM
IC50 (nM), TF1 cell proliferation [2]: 9.2 nM
IC50 (nM), TF-1 proliferation at 100 IU/mL IL-6 [13]: 6.26 nM
IC50 (Human soluble IL-6R [14]): 0.592 nM
IC50 (Human plasma sIL-6R [15]): 0.55 nM
IC50 (Human plasma sIL-6R [16]): 8.47 nM
binding result (Mouse IL-6R [17]): no binding (tested: not given)
IC50 (read off the curve) (Cyno plasma sIL-6R): ~0.1 nM
IC50 (read off the curve) (Human plasma sIL-6R [18]): ~0.3 nM

B3: IL6R06 (VHH)
VHH: EVQLVESGGGLVQAGGSLRLSCAASGNIFDDNTMGWTWNRQPPGKQRELVAIIATDGSTNYADSVKGRFTISRDNAKNTVYLQMNSLKPEDTAVYYCNLFSLRLGRDYWGQGTQVTVSS
notes: also called PMP32E2; not shown: C-terminal c-myc and (His)6 tags
IC50 (nM), XG-1 cell proliferation [1]: 42.1 nM
IC50 (nM), TF1 cell proliferation [2]: 138 nM
IC50 (nM) XG-1 [3]: 42.1 nM
koff (Human soluble IL-6R [4]): 0.000886 s⁻¹
koff (Human soluble IL-6R [5]): 0.00757 s⁻¹
IC50 (Human soluble IL-6R [6]): 1.21 nM
Kd (Human soluble IL-6R [7]): 7.1 nM
IC50 (Human soluble IL-6R [8]): 1.21 nM
Ref Fab competition (%) (Human soluble IL-6R [9]): 36%
Residual reference-Fab binding to IL-6R (%) (Human soluble IL-6R [10]): 36%
Kd (Human soluble IL-6R [19]): 7.1 nM
kon (Human soluble IL-6R [19]): 1.07e+06 M⁻¹ s⁻¹
koff (Human soluble IL-6R [20]): 0.000886 s⁻¹

B4
IC50 (PMP20A11 [21]): 0.03 nM
IC50 (read off the curve) (PMP20A11 [22]): ~1 ng/mL

B5: IL6R01 (VHH)
VHH: EVQLVESGGGLVQPGGSLRLSCAASGFPLDYYAIGWFRQAPGKEREGVSCISSSDGSTYYADSVKGRFTISRDNAKNTVYLQMNSLKPEDTAVYYCALVHTTAQATGVPQREYEYEWWGQGTQVTVSS
notes: also called PMP28E11; not shown: C-terminal c-myc and (His)6 tags
Kd (Human soluble IL-6R [5]): 0.4 nM
koff (Human soluble IL-6R [5]): 0.00011 s⁻¹
kon (Human soluble IL-6R [5]): 262000 M⁻¹ s⁻¹
IC50 (Human soluble IL-6R [6]): 0.726 nM
IC50 (Human soluble IL-6R [8]): 0.73 nM
Ref Fab competition (%) (Human soluble IL-6R [9]): 49%
Residual reference-Fab binding to IL-6R (%) (Human soluble IL-6R [10]): 49%
Kd (Human soluble IL-6R [23]): 0.4 nM
binding result (Mouse IL-6R [12]): no binding (tested: 500 nM)
